Test results reported in the DeepSol protein solubility set.

assay: soluble on expression in E. coli; label from the status in PepcDB or PDB records

Row | Sequence | soluble on expression in E. coli
1 | MGSHHHHHHDITSLYKKAGSAAAVLEENLYFGGSFTMDMAADIASDHFISRRVDIGRITLNVREKGSGPLMLFFHGITSNSAVFEPLMIRLSDRFTTIAVDQRGHGLSDKPETGYEANDYADDIAGLIRTLARGHAILVGHSLGARNSVTAAAKYPDLVRSVVAIDFTPYIETEALDALEARVNAGSQLFEDIKAVEAYLAGRYPNIPADAIRIRAESGYQPVDGGLRPLASSAAMAQTARGLRSDLVPAYRDVTKPVLIVRGESSKLVSAAALAKTSRLRPDLPVVVVPGADHYVNEVSPEITLKAITNFIDA | soluble
2 | VDQFISPEQLQGVIYTDGELQADEMTLEIAELLQSAGPWGQHFPEPLFEGQCRILQQRILAGKHLKLMIQFNDRFELYDAIWFNVDLRTFPDLSIKHAQIVYKLDINEFRGNKNIQLRVESLIPL | not soluble
3 | MGSDKIHHHHHHMFKLVSEFEPTGDQPQAIEKLVEGLNRGMRFQTLLGVTGSGKTFTMANVIARVNRPALVISPNKTLAAQLYQEFKTFFPENRVEFFISYYDYYQPEAYIPTKDLYIEKNADINDVIVRMRMSTLKSVRTRRDVVVVASVSCIYATGDPNDFDRMNINLAVGDRIDVLELAERLARIGYQRTEDVSLSGCFRLKGDTVEIYPTYQDEGIRIEFFGDEVDSITLIDRFNRTTLEHLDKIIIYPAVEFITTEEKLKRAVESIREELNERLSELKKQGKILEYERLKQRTLNDIELLETMGYCPGIENYSRHFDGRKPGEPPYTLLDYFDKDFIVFIDESHITVPQLRAMYNGDRSRKKNLVEYGFRLPSAYDNRPLTFEEFLKKTGQIIFVSATPGDFELSISEQVVEQIIRPTGLVDPEVEVRPTAGQVDDLVNEIVKVKERGERALVTVLTKKTAELLSEHLTELGIRSLYLHSELDAIERVEVLKKLRRGDVDVVVGVNLLREGLDLPEVSLVAIMDADVEGFLRSETTLIQIIGRTARNVNGKVIMYADRITNAMKRAIEETNRRRRIQLEYNRKHGITPRSVIKPLEIEVFEQFMVKEEPERYGDTVKNIFEMKKTLSPEEYMAVLEEEMYRAASELRYEDAAALRDELFRIREEIKKKKGL | not soluble
4 | MTRCPERPGFMPRLSSHHFSRSRLSAPLLASGARVKLLCAPAGSGKTALLAECLQQAPETCRVSWLPLSGGRHSPQGLCAALAQALGLERDDEATVLQHLAHLQAPAWIFIDDYCRVAAADLDLLLDRLLSLDNPQLTWWLGCRRRPLCNWPRLLLDDQLFELDGPALAFSQIEIEQLLQRLPQPLCAQTASRILQRSGGWCAGVRIALLEGSELTIQPCKPGRPNTLLEYLEHELFSVLPAELAQVWQVLAHLPRFNAELCEHLFGVGEGAQYLRTLQDMACFIEPWDGGGDWLQVFPPLARLMRDE | not soluble
5 | GMSSKQHCVKLNDGHLIPALGFGTYKPKEVPKSKSLEAACLALDVGYRHVDTAYAYQVEEEIGQAIQSKIKAGVVKREDLFVTTKLWCTCFRPELVKPALEKSLKKLQLDYVDLYIMHYPVPMKSGDNDFPVNEQGKSLLDTVDFCDTWERLEECKDAGLVKSIGVSNFNHRQLERILNKPGLKYKPVCNQVECHLYLNQRKLLDYCESKDIVLVAYGALGTQRYKEWVDQNSPVLLNDPVLCDVAKKNKRSPALIALRYLIQRGIVPLAQSFKENEMRENLQVFGFQLSPEDMKTLDGLNKNFRYLPAEFLVDHPEYPFVEEY | soluble
6 | MVLYPLEAEVTMVTSFQDADPMGVIYHGNFFRYFEEARRVLMEKIQYGYRDMQDSGYMWPIIDTRVKYVKAIPFNHTIRITAQLTEWENRLRVDYVIYDAETNQRMCKAHTTQVAVSIEKQEMCFVSPAVFLDKVEQWHNHGLEHHHHHH | not soluble
7 | MKEIKVIIAGPRGRMGHEAVLLMERTEHFNLVAAVDYKHGGEKISDLPGMPALHAPIYADLHTCLDEVEADVLLDLTTPEVGKQHVTLAVERGLRSVIGTTGFTEEELTRLTENAKEKAVGTIIAPNFAIGAVLMMKFSQMAAKYFQDVEVIELHHDQKLDAPSGTAVKTVELIRQNRESKQQGHPNEVEQLAGARGANVDGIHIHSVRLPGLIAHQEVMFGGDGQMLTVRHDSFNRASFMSGVKLSIETVMNLDHLVYGLENIID | not soluble
8 | MLLKSHHSGGRKTRFLTVLDVGSSKIVCLIACLRPLKHAHYLHGRTHSMEILGFGVQRSRGIKSGVVMDIFAAEQSIRLAVDAAEKMAGLVVDSVIVNFSSSRLQSALINGVVSLNGREVTKRDIRVAFADVSRKAFNAERHVVHSVPVSYVLDGDKGISDPVGMIGDFFGVDVHVVTAETAALRNLETCINRAHLSVEAMVVTPFASGLAVLMNDEAHLGAACIDFGGGTTTFSVFSEGKFVHANALAVGGHHVTLDVARGFSMSLPEAERLKVVYGSALVTSADERHMVNVTEIGNEHREIQYPRAVLGRIIRARVEEILEMVRDCLNRSGFGHIIGKRVILTGGASQLTGLPEMARTILGRNVRIGRPLGISRLPSLAKGAAFTSAVGLLIYPQLVGFEEKTMQVAVNHLSTGTRGYFQRVGQWLRESF | not soluble
9 | SIAILVIMHGESTASSMVNVANTLLDCNHAVAINMGLEDRVQDILVQAVEIANKIDKGKGILILTDMGSILTFAKVIRDATGKEVKAIDMVSTPIVIEATRKALTPEMTLEKLYFNIIESIKKHYGDMEVTYAEKDNGGRY | not soluble
10 | MTVELKNEYLTVLINEAGAELSSVKSSDGIEYMWQADKTFWGRHAPVLFPIVGRLKDDQYTVAGQAYHMGQHGFARDNDFTVVNQTATQATFELTDSRATREMYPYAFRLRLIYTLTDHELTVNYNVHNPANQELLFSVGGHPAFNVPLADPAGTLADYKITVAPRKVYAHIPLQAPLNDAANADDFDLTKPLALSRDLFKDDALILDLNHHETTLMLDTDLDDHGVAMTIEDAPYVGMWSPYPAEAPFVCLEPWWGIADNVDSDGQLSHKMGINRLAANQTFDAKYAISFFLEHHHHHH | not soluble
11 | MGSDKIHHHHHHMKYRTVFDIIGPVMIGPSSSHTAGAARIGRVARTLFGQQPERCDIYFYGSFAETYKGHGTDVAIVGGILDFDTFDPRIPRSLQLAKEKGVRVYFHEEEAITDHPNTAKVVLQKGEDQLEVVGVSIGGGKIEIVELNGFHLKLSGNHPAILVVHTDRFGVIASVSNMLAKHEINIGHMEVSRKEKGKEALMVIEVDQNVDDLLLQELERLPNIVTVTKIHD | not soluble
12 | MPVFVKLTGGSIGLQAGVQSSDVVLVFRNDRNLDNIVNGKFTLGADASVAAGPVGRNALAATDSELKAEIYSWSTARGLFAGIALDGAALQIDDSANLDVYGKGTTPRMIFEGRTAEPPSSDVIAFRDRLEEVTYTARNNLEHHHHHH | soluble
13 | MSLFVEALKRQNPALISAALSLWQQGKIAPDSWVIDVDQILENGKRLIETARLYGIELYLMTKQFGRNPWLAEKLLALGYSGIVAVDYKEARVMRRAGLPVAHQGHLVQIPCHQVADAVEQGTDVITVFTLDKAREVSAAAVKAGRIQSVLLKVYSDDDFLYPGQESGFALKVLPEIVAEIQNLPGLHLAGLTHFPCLLWDEAVGKVLPTPNLHTLIQARDQLAKSGIALEQLNAPSATSCTSLPLLAQYGVTHAEPGHALTGTIPANQQGDQPERIAMLWLSEISHHFRGDSYCYGGGYYRRGHAQHALVFTPENQKITETNLKTVDDSSIDYTLPLAGEFPVSSAVVLCFRTQIFVTRSDVVLVSGIHRGEPEIVGRYDSLGNSLGAEGHHHHHH | soluble
14 | AVFRHTLLHFFERLQSNDIYYKFHNILFLKCEHTEQNAAVIAIARKHQAIWREKITAVLTEAVENQDLADDLDKETAVIFIKSTLDGLIWRWFSSCERFDLGKTAPRIIGIMMDNLENHPDLRRK | not soluble
15 | MVERTAVFPAGRHSLYAEHRYSAAIRSGDLLFVSGQVGSREDGTPEPDFQQQVRLAFDNLHATLAAAGCTFDDIIDVTSFHTDPENQFEDIMTVKNEIFSAPPYPNWTAVGVTWLAGFDFEIKVIARIPEQ | soluble
16 | SNAMKKTLILGATPETNRYAYLAAERLKSHGHEFIPVGRKKGEVLGKTIINERPVIEGVDTVTLYINPQNQLSEYNYILSLKPKRVIFNPGTENEELEEILSENGIEPVIGCTLVMLSAGTF | soluble
